For six molecules, IC50 value, plaque reduction assay using wild-type SARS-COV-2, IC50 value, plaque reduction assay using the SARS-COV-2 Brazilian variant (P.1) and IC50 value, plaque reduction assay using the SARS-COV-2 UK variant (B.1.1.7) results are on record in patent US20240309059A1, “PEPTIDE HAVING ANTI-VIRAL ACTIVITY, ANTI-VIRAL AGENT COMPRISING SAID PEPTIDE, AND METHOD FOR PRODUCING SAID ANTI-VIRAL AGENT” (National University Corporation Tokyo Medical and Dental …, priority 2021, published 2024).

Where a chain is given by its changes, count along the chain named.

Assay in all cases: cell-based or functional assay
For test [1], the target named is receptor binding domain (RBD) in wild-type SARS-COV-2 (SARS-CoV-2 (wild-type)), P0DTC2.
Test [2] deals with receptor binding domain (RBD) in the SARS-CoV-2 Brazilian variant (P.1) (SARS-CoV-2 Brazilian variant (P.1)), P0DTC2.
Test [3] addresses receptor binding domain (RBD) in the SARS-CoV-2 UK variant (B.1.1.7) (SARS-CoV-2 UK variant (B.1.1.7)), P0DTC2.

B1: Ce1 (peptide)
peptide: DKEWILQKIYEIMRLLDELGHAEASMRVSDLIYEFMKKD
modifications: not checked
As for B1, in test [1], the IC50 value, plaque reduction assay using wild-type SARS-COV-2 is 1.5 nM.

B2: Ce9 (peptide)
peptide: B1 peptide with L15R, L19E
modifications: not checked
Molecule B2 yielded an IC50 value, plaque reduction assay using the SARS-COV-2 Brazilian variant (P.1) in test [2] of 1200 nM. In test [3], the IC50 value, plaque reduction assay using the SARS-COV-2 UK variant (B.1.1.7) is 13 nM. This molecule had an IC50 value, plaque reduction assay using wild-type SARS-COV-2 in test [1] of 0.4 nM.

B3: Ce41 (peptide)
peptide: B1 peptide with L15R, L19E, A22G, M26L
modifications: not checked
In turn, B3 had an IC50 value, plaque reduction assay using the SARS-COV-2 UK variant (B.1.1.7) in test [3] of 0.68 nM.

B4: Ce172 (peptide)
peptide: DKLWILQKIYEIMVRLDEEGHGEASLMVSDLIYEFMKRD
modifications: not checked
The molecule B4 returned an IC50 value, plaque reduction assay using the SARS-COV-2 UK variant (B.1.1.7) in test [3] of 0.0022 nM.

B5: Ce59 (peptide)
peptide: B4 peptide with L3E, V14R, M27R
modifications: not checked
In the case of B5, the IC50 value, plaque reduction assay using the SARS-COV-2 UK variant (B.1.1.7) in test [3] amounted to 0.2 nM.

B6: Ce149 (peptide)
peptide: B4 peptide with L3E, Q7Y
modifications: not checked
In the case of B6, in test [3], the IC50 value, plaque reduction assay using the SARS-COV-2 UK variant (B.1.1.7) turned out to be 0.0021 nM.
